This series addresses streptavidin (UniProt P22629 P22629:25-183). Description: pulldown; recovery similar to tRNA scaffold control, described as non-specific under these conditions. The settings on record: tags: immobilised on sepharose beads (streptavidin sepharose); chain copies: 4 (inferred). How it is done: Subsequently, the beads were resuspended in 20 μL of binding buffer with RNasin Ribonuclease Inhibitor (3 μL/100 units) and then incubated on ice for 15 minutes. (2) Preparation of RNA aptamers. 2.5 μg of the RNA aptamers were resuspended in 10 μL binding buffer. Refolding of the RNA aptamers was performed by heating at 56° C. for 5 min, 37° C. for 10 min, followed by a room temperature incubation for 5 minutes to refold aptamer structure. At the end of the RNA aptamer preparation procedure, 2 μL of the random aptamer and the Sim aptamer in a 1:2 mix with binding buffer were collected as a control for total RNA aptamer yield (input control). (3) Incubation conditions. 10 μL of refolded aptamer containing mRNA (2.5 μg) aptamers were added to the beads and incubated at 4° C. for 2 hours on a rotator. Subsequently, beads were washed 3 times with 100 μL of binding buffer and kept on ice for the remainder of the procedure to maintain aptamer secondary structure. (4) Elution of RNA aptamers from beads. Elution was performed with 250 μL phenol-based reagent in the following steps. […] RNA concentration following streptavidin affinity purification was quantified on a Nanodrop using parameters set by the manufacturer's specifications.
Affinity binding of the Sm, tRNA, tRNA-Sm, and 2× tRNA Sm aptamer tags were analyzed. […]

One molecule from patent US20240327847, “COMPOSITIONS AND METHODS FOR RNA AFFINITY” (SANOFI, published 2024) can be followed below.

Sequence of streptavidin (P22629 25-183, one chain of several): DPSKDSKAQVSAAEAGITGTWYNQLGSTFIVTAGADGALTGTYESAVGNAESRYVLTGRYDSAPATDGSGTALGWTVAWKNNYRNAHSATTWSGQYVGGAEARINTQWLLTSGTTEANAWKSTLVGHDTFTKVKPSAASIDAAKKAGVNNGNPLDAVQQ

Take CGACCAGAAUCAUGCAAGUGCGUAAGAUAGUCGCGGG (ssRNA) [Sm aptamer (pAM20)]: the binding result is “no binding”.
